Results reported in US6716811B1, “Compounds having affinity for the granulocyte-colony stimulating factor receptor (G-CSFR) and associated uses” (Affymax, Inc., priority 2000, dated 2004).
Where a SMILES comes first, the peptide text is derived from it. Bridges are numbered along the chain shown (N, C = ends). Roman numbers before positions name the chains, in order.

What was measured:
G-CSFR [1] = molecular target: T1, G-CSFR (Homo sapiens, UniProt Q99062); assay: G-CSF radioligand binding assay (SPA beads, 125I labeled G-CSF); settings: reduction by 50% of 125I labeled G-CSF bound to immobilized G-CSFR; overnight at 4° C.
T1 construct: incubation with soluble G-CSFR harvest; made in house
T1 sequence (Q99062 25-627): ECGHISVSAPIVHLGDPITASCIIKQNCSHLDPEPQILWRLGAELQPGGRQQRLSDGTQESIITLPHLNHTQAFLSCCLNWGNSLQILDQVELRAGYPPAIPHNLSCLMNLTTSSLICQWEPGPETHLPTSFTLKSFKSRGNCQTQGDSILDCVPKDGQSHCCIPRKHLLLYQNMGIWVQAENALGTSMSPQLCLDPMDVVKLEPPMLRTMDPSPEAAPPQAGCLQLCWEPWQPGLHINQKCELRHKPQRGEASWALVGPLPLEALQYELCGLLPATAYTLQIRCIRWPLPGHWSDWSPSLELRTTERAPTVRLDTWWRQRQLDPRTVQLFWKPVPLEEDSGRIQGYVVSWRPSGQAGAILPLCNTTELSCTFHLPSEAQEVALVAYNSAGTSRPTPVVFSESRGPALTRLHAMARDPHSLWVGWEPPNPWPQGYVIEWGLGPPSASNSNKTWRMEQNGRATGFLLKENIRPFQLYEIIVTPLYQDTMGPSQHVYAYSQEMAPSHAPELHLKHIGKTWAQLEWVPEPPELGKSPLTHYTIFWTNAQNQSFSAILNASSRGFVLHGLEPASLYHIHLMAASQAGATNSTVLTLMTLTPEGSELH
Method: Streptavidin-coated scintillation proximity assay (SPA) beads (Amersham) were mixed with biotinylated anti-receptor immobilizing antibody (Ab179) followed by incubation with soluble G-CSFR harvest. Receptor-coated SPA beads were washed twice in PBS/0.1% BSA and distributed to wells of a white polystyrene 96-well microtiter plate (Packard). Serial dilutions of peptide or peptide mimetic were mixed with a constant amount of ^125I labeled G-CSF (10^5 cpm; 1290 Ci/mmol) in PBS/0.1% BSA, added to wells containing receptor-coated SPA beads, and incubated overnight at 4° C. The binding of radiolabeled G-CSF to the receptor-coated SPA bead brings the isotope in close proximity to the scintillant, which allows the emitted radiation to stimulate the scintillant to emit light. […] The amount of ^125I labeled G-CSF that was bound at equilibrium was measured by counting the plate in a TopCount (Wallac) microtiter plate luminometer. […] One can determine the concentration at which the peptide or peptide mimetic will reduce by 50% (IC50) the amount of ^125I labeled G-CSF bound to immobilized G-CSFR.

G-CSFR [2] = molecular target: T1, G-CSFR; assay: Specific binding of peptides to G-CSFR; settings: total minus non-specific binding; unlabeled ligand typically G-CSF variant CS17
Source text: Specific binding is binding of a ligand to a specific receptor, as opposed to non-specific binding that is mediated by non-specific interactions. Specific binding may be measured by subtraction of the non-specific binding (measured in the presence of saturating concentrations of unlabeled ligand) from the total binding (measured in the absence of saturating amounts of ligand). Typically, the unlabeled ligand used was a variant of G-CSF in which the cysteine normally found at position 17 was converted to serine (CS17).

G-CSFR [3] = molecular target: T2, G-CSFR (Homo sapiens, UniProt Q99062); assay: G-CSF competition binding assay (125I labeled G-CSF, immobilized G-CSFR in microtiter wells); set-up: made in house; settings: reduction of bound 125I labeled G-CSF; overnight at 4° C.
T2 sequence (Q99062 25-836): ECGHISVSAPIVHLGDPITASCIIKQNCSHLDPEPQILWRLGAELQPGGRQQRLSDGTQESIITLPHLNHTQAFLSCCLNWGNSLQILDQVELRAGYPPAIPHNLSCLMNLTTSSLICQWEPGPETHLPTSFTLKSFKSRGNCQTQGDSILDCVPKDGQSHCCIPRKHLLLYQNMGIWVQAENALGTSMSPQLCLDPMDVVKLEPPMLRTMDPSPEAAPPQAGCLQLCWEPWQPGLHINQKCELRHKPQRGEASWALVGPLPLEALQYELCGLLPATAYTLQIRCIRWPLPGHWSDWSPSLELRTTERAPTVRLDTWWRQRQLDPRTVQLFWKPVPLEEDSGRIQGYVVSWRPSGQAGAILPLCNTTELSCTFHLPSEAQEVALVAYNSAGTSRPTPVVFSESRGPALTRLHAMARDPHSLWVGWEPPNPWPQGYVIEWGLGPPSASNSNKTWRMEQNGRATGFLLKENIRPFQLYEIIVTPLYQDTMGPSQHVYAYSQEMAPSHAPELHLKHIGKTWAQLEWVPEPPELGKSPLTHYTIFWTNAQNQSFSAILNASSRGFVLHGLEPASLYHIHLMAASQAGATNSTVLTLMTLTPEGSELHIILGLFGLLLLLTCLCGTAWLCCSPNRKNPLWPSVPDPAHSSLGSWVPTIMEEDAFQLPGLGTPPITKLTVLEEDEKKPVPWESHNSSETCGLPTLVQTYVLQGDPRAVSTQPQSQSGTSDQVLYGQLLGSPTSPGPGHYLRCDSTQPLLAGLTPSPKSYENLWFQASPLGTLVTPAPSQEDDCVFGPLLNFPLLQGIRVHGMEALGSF
Method: Determination of competitive binding was also carried out for a number of peptides. Briefly stated, G-CSFR was purified using standard techniques. The receptor was then immobilized in microtiter plate wells that were coated with acid-treated antibody (A b179) specific for a site on G-CSFR not involved with G-CSF binding. Separately, ^125I was coupled to the natural ligand G-CSF using techniques well known in the art. Test peptides were added to receptor-coated wells and allowed to bind to immobilized receptor for approximately 30 minutes. ^125 labeled G-CSF was then introduced to the wells and incubated overnight at 4°C. Unbound ^125I labeled G-CSF was removed by washing the plate several times followed by measuring the amount of radioactivity that remained in each well using conventional techniques. […] Alternatively, if reduced amounts or no ^125I labeled G-CSF was detected, the peptide did compete.

In the case of “Ac-NSGWVW-NH2 [Example 43, Ac-NSGWVW-CONH2]”, the IC50 (G-CSFR [1]) is reported as over 200 µM.
For CSFVQLNSIC [Example 5], the “Specific Binding?” value (G-CSFR [2]) was “Yes” and the “Competitive Binding?” value (G-CSFR [3]) was “Yes”.
N=C(N)NCCC[C@H](NC(=O)[C@H](CCC(=O)O)NC(=O)[C@H](CO)NC(=O)[C@H](CC(N)=O)NC(=O)[C@H](CO)NC(=O)[C@@H](N)CCC(N)=O)C(=O)N[C@@H](CCC(=O)O)C(=O)N[C@@H](Cc1c[nH]c2ccccc12)C(=O)N[C@@H](Cc1ccccc1)C(=O)N[C@@H](CSSC[C@H](NC(=O)[C@H](Cc1ccccc1)NC(=O)[C@H](Cc1c[nH]c2ccccc12)NC(=O)[C@H](CCC(=O)O)NC(=O)[C@H](CCCNC(=N)N)NC(=O)[C@H](CCC(=O)O)NC(=O)[C@H](CO)NC(=O)[C@H](CC(N)=O)NC(=O)[C@H](CO)NC(=O)[C@@H](N)CCC(N)=O)C(=O)NCC(N)=O)C(=O)NCC(N)=O [Example 41] (I: H-QSNSEREWFCG-NH2 / II: H-QSNSEREWFCG-NH2; disulfide I:10-II:10) gave an IC50 (G-CSFR [1]) of over 200 µM.
For “H-QSNSEREWFCG-NH2 [Example 40, NH2-QSNSEREWFCG-CONH2]”, the IC50 (G-CSFR [1]) was over 200 µM.
For CPDWYQSYMC [Example 12], the “Specific Binding?” value (G-CSFR [2]) was “Yes” and the “Competitive Binding?” value (G-CSFR [3]) was “Yes”.
With CVPWMFYDLC [Example 6] the “Specific Binding?” value (G-CSFR [2]) was “Yes” and the “Competitive Binding?” value (G-CSFR [3]) was “No”.
In the case of CC(C)C[C@H](NC(=O)[C@H](CCCNC(=N)N)NC(=O)[C@H](CCC(=O)O)NC(=O)[C@H](C)NC(=O)[C@@H](NC(=O)[C@@H](N)CO)[C@@H](C)O)C(=O)N[C@@H](Cc1c[nH]c2ccccc12)C(=O)N[C@@H](Cc1ccccc1)C(=O)N[C@@H](CSSC[C@H](NC(=O)[C@H](Cc1ccccc1)NC(=O)[C@H](Cc1c[nH]c2ccccc12)NC(=O)[C@H](CC(C)C)NC(=O)[C@H](CCCNC(=N)N)NC(=O)[C@H](CCC(=O)O)NC(=O)[C@H](C)NC(=O)[C@@H](NC(=O)[C@@H](N)CO)[C@@H](C)O)C(=O)NCC(N)=O)C(=O)NCC(N)=O [Example 37] (I: H-STAERLWFCG-NH2 / II: H-STAERLWFCG-NH2; disulfide I:9-II:9), the IC50 (G-CSFR [1]) is reported as 0.5 to 200 µM.
CQRAGYMLAC [Example 8] was tested, and the “Specific Binding?” value (G-CSFR [2]) was “No” and the “Competitive Binding?” value (G-CSFR [3]) was “No”.
For “H-QSNSEREWFC-NH2 [Example 38, NH2-QSNSEREWFC-CONH2]”, the IC50 (G-CSFR [1]) was over 200 µM.
“H-EQSNSGWVWV-NH2 [Example 35, NH2-EQSNSGWVWV-CONH2]” showed an IC50 (G-CSFR [1]) of 0.5 to 200 µM.
Work on “H-EQSNSGWVWVGGGGC-NH2 [Example 45, NH2-EQSNSGWVWVGGGGC-CONH2]” yielded an IC50 (G-CSFR [1]) of 0.5 to 200 µM.
In the case of CC(C)[C@H](NC(=O)[C@H](Cc1c[nH]c2ccccc12)NC(=O)[C@@H](NC(=O)[C@H](Cc1c[nH]c2ccccc12)NC(=O)CNC(=O)[C@H](CO)NC(=O)[C@H](CC(N)=O)NC(=O)[C@H](CO)NC(=O)[C@H](CCC(N)=O)NC(=O)[C@@H](N)CCC(=O)O)C(C)C)C(=O)NCC(=O)NCC(=O)NCC(=O)NCC(=O)N[C@@H](CSSC[C@H](NC(=O)CNC(=O)CNC(=O)CNC(=O)CNC(=O)[C@@H](NC(=O)[C@H](Cc1c[nH]c2ccccc12)NC(=O)[C@@H](NC(=O)[C@H](Cc1c[nH]c2ccccc12)NC(=O)CNC(=O)[C@H](CO)NC(=O)[C@H](CC(N)=O)NC(=O)[C@H](CO)NC(=O)[C@H](CCC(N)=O)NC(=O)[C@@H](N)CCC(=O)O)C(C)C)C(C)C)C(N)=O)C(N)=O [Example 46] (I: H-EQSNSGWVWVGGGGC-NH2 / II: H-EQSNSGWVWVGGGGC-NH2; disulfide I:15-II:15), the IC50 (G-CSFR [1]) is reported as 0.5 to 200 µM.
With CAGEVMHMCC [Example 1] the “Specific Binding?” value (G-CSFR [2]) was “Yes” and the “Competitive Binding?” value (G-CSFR [3]) was “Yes”.
For CNREIEAMCC [Example 2], the “Specific Binding?” value (G-CSFR [2]) was “Yes” and the “Competitive Binding?” value (G-CSFR [3]) was “Yes”.
In the case of CDVWQLFDRC [Example 4], the “Specific Binding?” value (G-CSFR [2]) is reported as “Yes” and the “Competitive Binding?” value (G-CSFR [3]) is reported as “Yes”.
For CFWSDWGQTC [Example 11], the “Specific Binding?” value (G-CSFR [2]) was “No” and the “Competitive Binding?” value (G-CSFR [3]) was “No”.
With CADEVMHFCC [Example 3] the “Specific Binding?” value (G-CSFR [2]) was “Yes” and the “Competitive Binding?” value (G-CSFR [3]) was “Yes”.
With CPHWTSYYMC [Example 13] the “Specific Binding?” value (G-CSFR [2]) was “Yes” and the “Competitive Binding?” value (G-CSFR [3]) was “Yes”.
With CHANPVWGEC [Example 9] the “Specific Binding?” value (G-CSFR [2]) was “No” and the “Competitive Binding?” value (G-CSFR [3]) was “No”.
In the case of CDPWMFYDLC [Example 7], the “Specific Binding?” value (G-CSFR [2]) is reported as “Yes” and the “Competitive Binding?” value (G-CSFR [3]) is reported as “No”.
CACMLRVVHC [Example 14] was tested, and the “Specific Binding?” value (G-CSFR [2]) was “Yes” and the “Competitive Binding?” value (G-CSFR [3]) was “Yes”.
“H-KSTGGLTAERDAEKRRWLLTHGGE-OH [Example 66]” showed an IC50 (G-CSFR [1]) of over 200 µM.
“Ac-ESGWVW-NH2 [Example 42, Ac-ESGWVW-CONH2]” showed an IC50 (G-CSFR [1]) of over 200 µM.
With CETLCGACFC [Example 15] the “Specific Binding?” value (G-CSFR [2]) was “No” and the “Competitive Binding?” value (G-CSFR [3]) was “No”.
“H-STAERLWFCG-NH2 [Example 36, NH2-STAERLWFCG-CONH2]” was tested, and the IC50 (G-CSFR [1]) was over 200 µM.
Work on N=C(N)NCCC[C@H](NC(=O)[C@H](CCC(=O)O)NC(=O)[C@H](CO)NC(=O)[C@H](CC(N)=O)NC(=O)[C@H](CO)NC(=O)[C@@H](N)CCC(N)=O)C(=O)N[C@@H](CCC(=O)O)C(=O)N[C@@H](Cc1c[nH]c2ccccc12)C(=O)N[C@@H](Cc1ccccc1)C(=O)N[C@@H](CSSC[C@H](NC(=O)[C@H](Cc1ccccc1)NC(=O)[C@H](Cc1c[nH]c2ccccc12)NC(=O)[C@H](CCC(=O)O)NC(=O)[C@H](CCCNC(=N)N)NC(=O)[C@H](CCC(=O)O)NC(=O)[C@H](CO)NC(=O)[C@H](CC(N)=O)NC(=O)[C@H](CO)NC(=O)[C@@H](N)CCC(N)=O)C(N)=O)C(N)=O [Example 39] (I: H-QSNSEREWFC-NH2 / II: H-QSNSEREWFC-NH2; disulfide I:10-II:10) yielded an IC50 (G-CSFR [1]) of over 200 µM.
